# Measurements as given in the supplement of paper PMC10567573.
# ± gives the standard deviation.
# Assay: protein stability index of a GFP-peptide fusion (GPS, HEK-293T) (PSI 1-6); higher = more stable
# [1] = treatment: DMSO, c terminus: a fixed tail appended
# [2] = treatment: MLN4924 1 uM, 8 h, c terminus: a fixed tail appended
# 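Further: 24-mer peptide tiles fused after GFP, lentivirally expressed, FACS-sorted into six equal bins by GFP/DsRed ratio, decoded by Illumina sequencing, PSI is the read-weighted mean bin number.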
Sequence,protein stability index [1],protein stability index [2],"protein stability index (treatment: DMSO, c terminus: native)","protein stability index (treatment: MLN4924 1 uM, 8 h, c terminus: native)"
KQLLNSAVIAQQRRKPDPPKDENE [DLC1],5.35 ± 0.28,5.41 ± 0.12,–,–
KQLNCVEISALNGNRINVPMVRKR [DLC1],4.12 ± 0.24,4.07 ± 0.3,–,–
KQNKQVLGYCLLLMLAGMGLHYIA [DNAJC4],2.23 ± 0.31,2.46 ± 0.37,–,–
KRDLLGALKYWKKAMNMRYSDRTN [FEM1C],1.95 ± 0.25,2.27 ± 0.33,–,–
KRFTDAGFEHYDLFFIDGSTPSDN [CDC14A],3.45 ± 0.16,3.45 ± 0.084,–,–
KSIDDTSNFDDFPESDILQPVPNT [STK38L],5.25 ± 0.24,5.27 ± 0.077,–,–
KSPQFNRYFYLLENIAWVKSYNIC [PDS5B],2.17 ± 0.19,2.27 ± 0.14,–,–
KSSSLLTQTSEECNGILTEKMEEE [ZNF396],5.56 ± 0.15,5.54 ± 0.27,–,–
KTAHDSNVLHVARLPNRQLISCSE [WDR41],3.6 ± 0.28,3.57 ± 0.35,–,–
KTFYKTADISQMLVCTADGDIHLS [TAF7L],2.47 ± 0.19,2.41 ± 0.34,–,–
KTLKAENAGLSSTAGLLREQVAQL [JUNB],3.72 ± 0.38,4 ± 0.15,–,–
KTLQEIYRKYRKLIESELSYFVIV [FBXO39],2.37 ± 0.41,2.62 ± 0.55,–,–
KTRVDLKELGQSQKEQGLSDNILS [PDZK1],4.55 ± 0.1,4.88 ± 0.4,–,–
KVKPAEAETAGAIMAFFLCLGLAL [SLC29A1],2.99 ± 0.62,2.86 ± 0.71,–,–
KVPAPKDVLAHQVPNAKKLRRKEQ [NOP53],4.76 ± 0.26,4.99 ± 0.17,–,–
KVVHAVDGTAENGIHPLSSSEVDE [PALM],5.25 ± 0.11,5.47 ± 0.19,–,–
KYREAARLEINVLKKIKEKDKENK [CLK3],4.45 ± 0.18,4.25 ± 0.41,–,–
LAALSATISFRIYKSVLQAVQKTD [RTN1],2.53 ± 0.76,2.28 ± 0.54,–,–
LAEYCVKTKAPAPDEGSDLFYDDY [CDC34],4.12 ± 0.24,4.33 ± 0.41,–,–
LAFRSGSDNLLVILKRKWWKYILL [SLC35F2],2.58 ± 0.47,1.98 ± 0.54,–,–
LAGTFHYYSCERAKKAMGYQPLVT [NSDHL],2.2 ± 0.12,2.27 ± 0.13,–,–
LALLVLAHSSDVLENVFSSLTDDK [GOLPH3L],2.85 ± 0.57,2.83 ± 0.49,–,–

Sequence,protein stability index [1],protein stability index [2],"protein stability index (treatment: DMSO, c terminus: native)","protein stability index (treatment: MLN4924 1 uM, 8 h, c terminus: native)"
LANSWNCLPKHLLHSVNQRFGSNN [KLHDC2],2.43 ± 0.33,2.3 ± 0.23,–,–
LASQNKPLWQCYLGRFNDINVPIR [PDS5B],2.03 ± 0.73,2.72 ± 0.058,–,–
LASYPLALVRTRMQAQASIEGAPE [SLC25A25],4.03 ± 0.19,4.18 ± 0.43,–,–
LAVAVPAVTSADSQFSQTTQAGS [LYSMD4],–,–,3.91 ± 0.64,3.96 ± 0.32
LAVMGYDRYIAICNPLRYSVLMGH [OR10K2],2.55 ± 0.28,2.58 ± 0.6,–,–
LDKQMSRDEHRARAMKIPFTNDKI [NFE2L1],4.13 ± 0.32,4.28 ± 0.25,–,–
LDLDSIIDEVRTQYEEIALKSKAE [KRT71],3.91 ± 0.3,4.21 ± 0.57,–,–
LDLLLDMPPVSYDVQLLHSWNNND [SPSB1],2.66 ± 0.32,2.65 ± 0.23,–,–
LDSDHRELIGDYSKAFLLQTVDGK [CDC25B],3.77 ± 0.061,3.81 ± 0.2,–,–
LDTVELATYCVRTFALYKNGSSEK [PTPRD],2.37 ± 0.042,2.55 ± 0.35,–,–
LEENDETRFILSKVPSEAPSPMPT [SLC6A17],4.8 ± 0.15,4.84 ± 0.17,–,–
LEGQDAKMIGFPSSAGSVSPRSTS [KRT13],5.18 ± 0.16,5.152 ± 0.026,–,–
LEGQSGVTIKHVACGDFFTACLTD [NEK8],2.75 ± 0.28,2.89 ± 0.47,–,–
LEISPDCSQYDRVYCGAGVQKEHE [PCMTD2],4.56 ± 0.3,4.44 ± 0.21,–,–
LEQFLAILPKELQAWVQKHHPENG [ZNF396],2.63 ± 0.14,2.79 ± 0.24,–,–
LEQRSESVRRTRSKIGFGILLSKE [SMAD6],3.51 ± 0.27,3.5 ± 0.3,–,–
LERGRASLIFSLKNEVGGLIKALK [TPH1],3.37 ± 0.36,2.36 ± 0.61,–,–
LFPPKAKSNQPKSLEDLIFESLPE [ATE1],3 ± 0.055,3.66 ± 0.59,–,–
LFVADAYKGLFEVNPWKREVKLLL [APMAP],2.56 ± 0.27,2.34 ± 0.9,–,–
LGAEIRNGMAIIRPPGHHAQHSLM [HDAC6],2.92 ± 0.096,2.99 ± 0.26,–,–
LGAGSDLKDFTLNETVNSIFAQGA [ADAMTSL2],3.12 ± 0.2,3.28 ± 0.35,–,–
LGGYVKIDLATWNFQFLPQVNGHP [PTPN9],2.92 ± 0.57,2.74 ± 0.86,–,–
